The target of the assay is Calcineurin (human PPP3CA / PPP3R1 heterodimer) (human, UniProt Q08209 1-521; P63098 1-170). The assay can be described thus: SPR; apparent, steady-state fit.

B1: Biotin-Cys-AKAP5c_(ILVF->SA) (domain or fragment)
chain: CVAEETKPKDTELSQESDFKENGITEEKSKSEESKRMEPIAIIITDTEISEFDVTKSKNVPKQASASAENEQVGVFANDNGFEDRTSEQYETASAETASSLVKNAAQSSAEQSANEMASDDNKINNLLQ
modifications: biotin (EZ-Link Maleimide-PEG2-Biotin) on the unique added N-terminal Cys
On to B1, for which the Kd was determined as 550 nM.
